Results from US20100254989A1.

Key:
[1] = target: c-Met receptor on OVCAR-8 cells (human) (UniProt P08581); test: cell-based or functional assay
human c-Met ECD (human) = human c-Met ECD (human) (UniProt P08581); test: SPR (Biacore T100), antibody captured by anti-Fc gamma, c-Met ECD in solution, 25 C

With “BsAB01, trivalent bispecific <ErbB1-c-Met> antibody (full length cetuximab with one c-Met 5D5 single chain Fab fragment at the C-terminus of the knob heavy chain) (bispecific antibody)” the % Internalization of c-Met after 2 h on OVCAR-8 cells (=100-% antibody on cell surface) [1] was -14%, the % c-Met receptor on OVCAR-8 cell surface measured after 2 h [1] was 114% and the Kd (human c-Met ECD (human)) was 5.5 nM.
